# Test results as given in IntAct's records for PubMed 17024177.
# Experiments:
# pdk1_human PDK1 = pdk1_human PDK1 (UniProt Q15118)
# sp1_human SP1 = sp1_human SP1 (UniProt P08047)
# Sequence of sp1_human SP1 (P08047 whole entry): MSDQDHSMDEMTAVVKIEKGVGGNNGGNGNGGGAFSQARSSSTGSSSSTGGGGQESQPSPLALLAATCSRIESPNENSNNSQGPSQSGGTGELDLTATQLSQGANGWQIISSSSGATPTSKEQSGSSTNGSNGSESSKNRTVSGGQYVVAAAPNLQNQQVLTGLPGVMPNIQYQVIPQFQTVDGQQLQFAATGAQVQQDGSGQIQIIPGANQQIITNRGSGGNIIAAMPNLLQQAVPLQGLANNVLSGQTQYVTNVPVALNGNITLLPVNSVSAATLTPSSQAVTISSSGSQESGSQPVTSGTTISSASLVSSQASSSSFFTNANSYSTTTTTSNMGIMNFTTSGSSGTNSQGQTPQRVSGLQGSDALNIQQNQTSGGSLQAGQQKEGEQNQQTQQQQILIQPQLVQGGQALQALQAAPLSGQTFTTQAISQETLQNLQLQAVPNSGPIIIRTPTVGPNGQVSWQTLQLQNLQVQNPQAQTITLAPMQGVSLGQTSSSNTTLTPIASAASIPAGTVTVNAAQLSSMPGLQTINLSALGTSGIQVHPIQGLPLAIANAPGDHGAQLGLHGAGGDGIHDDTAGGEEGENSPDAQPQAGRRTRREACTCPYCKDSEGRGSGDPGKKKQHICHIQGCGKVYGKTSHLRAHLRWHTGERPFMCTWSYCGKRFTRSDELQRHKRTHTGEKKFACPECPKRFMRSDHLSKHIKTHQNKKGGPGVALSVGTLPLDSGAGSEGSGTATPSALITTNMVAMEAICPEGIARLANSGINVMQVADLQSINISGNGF
# Sequence of pdk1_human PDK1 (Q15118 whole entry, looked up): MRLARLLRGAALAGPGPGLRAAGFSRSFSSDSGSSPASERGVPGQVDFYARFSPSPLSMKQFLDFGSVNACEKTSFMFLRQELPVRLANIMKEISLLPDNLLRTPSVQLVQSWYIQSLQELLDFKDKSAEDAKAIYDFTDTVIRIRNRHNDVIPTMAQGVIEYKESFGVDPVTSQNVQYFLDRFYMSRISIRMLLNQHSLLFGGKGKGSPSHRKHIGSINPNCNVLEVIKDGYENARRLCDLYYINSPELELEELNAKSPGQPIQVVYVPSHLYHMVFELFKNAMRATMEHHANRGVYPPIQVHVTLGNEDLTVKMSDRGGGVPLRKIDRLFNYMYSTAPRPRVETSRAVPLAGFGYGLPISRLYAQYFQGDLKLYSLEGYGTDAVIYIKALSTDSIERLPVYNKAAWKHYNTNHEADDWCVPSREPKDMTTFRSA
# Sequence of Endothelial PAS domain-containing protein 1 (Homo sapiens), Q99814 P329T (Q99814 whole entry P329T, the tested form may be a part): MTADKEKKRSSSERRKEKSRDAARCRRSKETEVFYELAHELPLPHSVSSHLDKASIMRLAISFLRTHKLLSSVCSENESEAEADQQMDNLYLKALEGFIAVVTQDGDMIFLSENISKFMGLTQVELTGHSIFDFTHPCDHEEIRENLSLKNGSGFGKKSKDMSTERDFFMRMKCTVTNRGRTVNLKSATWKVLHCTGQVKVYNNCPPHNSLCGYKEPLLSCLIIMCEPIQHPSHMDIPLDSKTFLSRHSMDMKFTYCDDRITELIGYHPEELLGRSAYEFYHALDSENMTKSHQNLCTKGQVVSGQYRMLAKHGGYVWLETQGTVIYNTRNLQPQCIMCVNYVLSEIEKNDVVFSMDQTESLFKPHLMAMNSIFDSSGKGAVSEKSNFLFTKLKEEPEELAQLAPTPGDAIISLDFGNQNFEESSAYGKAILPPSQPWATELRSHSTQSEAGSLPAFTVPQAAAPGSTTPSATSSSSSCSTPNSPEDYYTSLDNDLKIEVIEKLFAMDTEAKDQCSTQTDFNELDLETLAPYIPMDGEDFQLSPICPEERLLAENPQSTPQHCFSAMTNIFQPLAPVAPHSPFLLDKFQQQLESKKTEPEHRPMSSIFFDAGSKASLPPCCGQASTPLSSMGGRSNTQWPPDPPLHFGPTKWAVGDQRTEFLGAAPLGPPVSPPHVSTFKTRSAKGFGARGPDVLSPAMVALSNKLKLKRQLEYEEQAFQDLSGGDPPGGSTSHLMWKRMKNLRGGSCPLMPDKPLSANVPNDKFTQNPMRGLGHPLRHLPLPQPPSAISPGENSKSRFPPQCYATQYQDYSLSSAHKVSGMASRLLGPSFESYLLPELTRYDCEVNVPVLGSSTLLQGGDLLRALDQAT
# Sequence of Endothelial PAS domain-containing protein 1 (Homo sapiens), Q99814 T324V (Q99814 whole entry T324V, the tested form may be a part): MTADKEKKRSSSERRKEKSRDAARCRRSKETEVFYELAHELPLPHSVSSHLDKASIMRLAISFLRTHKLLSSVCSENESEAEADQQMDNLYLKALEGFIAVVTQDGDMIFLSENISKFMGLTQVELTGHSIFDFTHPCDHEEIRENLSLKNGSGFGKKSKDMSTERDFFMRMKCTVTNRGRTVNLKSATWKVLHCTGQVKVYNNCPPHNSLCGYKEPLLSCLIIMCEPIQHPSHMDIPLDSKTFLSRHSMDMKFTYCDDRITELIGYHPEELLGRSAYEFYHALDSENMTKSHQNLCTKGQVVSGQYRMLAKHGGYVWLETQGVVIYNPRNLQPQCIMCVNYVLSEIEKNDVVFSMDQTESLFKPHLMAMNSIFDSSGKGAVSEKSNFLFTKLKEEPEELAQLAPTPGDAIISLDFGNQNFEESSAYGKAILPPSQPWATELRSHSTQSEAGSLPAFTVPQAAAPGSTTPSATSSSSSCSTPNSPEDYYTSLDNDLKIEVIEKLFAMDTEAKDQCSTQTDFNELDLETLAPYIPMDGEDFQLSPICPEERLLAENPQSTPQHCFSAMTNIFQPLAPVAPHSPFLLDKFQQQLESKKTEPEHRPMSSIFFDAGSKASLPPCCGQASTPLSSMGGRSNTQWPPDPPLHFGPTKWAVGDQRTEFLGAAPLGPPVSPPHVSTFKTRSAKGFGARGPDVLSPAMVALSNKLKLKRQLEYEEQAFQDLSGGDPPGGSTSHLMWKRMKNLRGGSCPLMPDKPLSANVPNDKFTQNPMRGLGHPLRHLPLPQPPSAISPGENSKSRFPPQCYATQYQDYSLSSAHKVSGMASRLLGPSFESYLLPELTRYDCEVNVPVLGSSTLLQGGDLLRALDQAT
Substance,effect of a mutation on the interaction (pdk1_human PDK1),effect of a mutation on the interaction (sp1_human SP1)
"Endothelial PAS domain-containing protein 1 (Homo sapiens), Q99814 T324V",disrupting interaction,–
"Endothelial PAS domain-containing protein 1 (Homo sapiens), Q99814 P329T",–,increasing interaction
